Laboratory results: paper PMC8125234, “Cardiolipin Stabilizes and Increases Catalytic Efficiency of Carnitine Palmitoyltransferase II and Its Variants S113L, P50H, and Y479F” (International Journal of Molecular Sciences, 2021)
Changes are numbered by the printed parent chain. Numbers in names are those of the source. Where “and” joins values, the source holds several entries; their conditions need not be identical. Identical values can stand only once.

B1: CPT II WT (Homo sapiens) (protein)
chain: SAGSGPGQYLQRSIVPTMHYQDSLPRLPIPKLEDTIRRYLSAQKPLLNDGQFRKTEQFCKSFENGIGKELHEQLVALDKQNKHTSYISGPWFDMYLSARDSVVLNFNPFMAFNPDPKSEYNDQLTRATNMTVSAIRFLKTLRAGLLEPEVFHLNPAKSDTITFKRLIRFVPSSLSWYGAYLVNAYPLDMSQYFRLFNSTRLPKPSRDELFTDDKARHLLVLRKGNFYIFDVLDQDGNIVSPSEIQAHLKYILSDSSPAPEFPLAYLTSENRDIWAELRQKLMSSGNEESLRKVDSAVFCLCLDDFPIKDLVHLSHNMLHGDGTNRWFDKSFNLIIAKDGSTAVHFEHSWGDGVAVLRFFNEVFKDSTQTPAVTPQSQPATTDSTVTVQKLNFELTDALKTGITAAKEKFDATMKTLTIDCVQFQRGGKEFLKKQKLSPDAVAQLAFQMAFLRQYGQTVATYESCSTAAFKHGRTETIRPASVYTKRCSEAFVREPSRHSAGELQQMMVECSKYHGQLTKEAAMGQGFDRHLFALRHLAAAKGIILPELYLDPAYGQINHNVLSTSTLSSPAVNLGGFAPVVSDGFGVGYAVHDNWIGCNVSSYPGRNAREFLQCVEKALEDMFDALEGKSIKS
notes: made in house; host or cells: Escherichia coli BL21Gold DE
B2: CPT II variant S113L (Homo sapiens; S113L) (protein)
chain: B1 chain with S88L
notes: as for B1
B3: CPT II variant Y479F (Homo sapiens; Y479F) (protein)
chain: B1 chain with Y454F
notes: as for B1

Assays:
[1] = Onset of aggregation by scattered light back reflection during heating ramp; type: physicochemical; settings: assay buffer; heating ramp 15 °C to 80 °C
Procedure: Supplementary materials can be found at https://www.mdpi.com/article/10.3390/ijms22094831/s1, Figure S1: Scattered light back reflection as measure for aggregation during the heating ramp from 15 °C to 80 °C of CPT II WT (black) and the variants P50H (red), S113L (blue) and Y479F (green) in assay buffer (magenta). The light scattering data were obtained simultaneously with nanoDSF data using the back reflection technology in a Prometheus NT.48 device. The unfolding of proteins leads to display of hydrophobic regions of the protein on the surface, which is followed by hydrophobic interaction of the protein molecules resulting in aggregation events. These aggregates are then detected via light scattering. […] The data allow the detection of onset of aggregation (Tagg) which differs clearly among the variants. The Tagg for WT is 38 °C, Y479F is 37 °C, S113L is 35 °C and P50H is 32 °C. […] Figure S2: The first derivatives of the transition curves of WT and the variants resulting from the ratio 350/330 nm were plotted against the temperature. The black, red, blue and green solid lines show the curves of WT and variants P50H, S113L and Y479F measured in assay buffer, respectively. The black, red, blue and green dashed lines show the maxima of the values of the first derivatives of the ratio 350 nm/330 nm of WT and variants P50H, S113L and Y479F, respectively. Figure S3: The effect of amino acid exchange in absence and presence of n-octyl-β-d-glucopyranoside (β-OG) on the stability of CPT II (1 mg/mL) assessed by nanoDSF. The TM of WT (37 °C) in buffer was used as reference value (ΔTM = 0 °C) to determine the ΔTM for the variants and the ΔTM for WT and variants in presence of β- OG. Error bars are SD derived from three independent experiments. Table S1. Comparison of the mean values of the half-lives (t1/2) of CPT II WT and the variants at 30 °C with the half-lives at 37, 40 or 42 °C. The differences of the half-lives for each CPT II enzyme between 37 and 40 or 42 °C as well as 40 and 42 °C are not significant. Number of experiments for each variant (n ≥ 3). Table S2. Comparison of the mean values of the half-lives (t1/2) between CPT II WT and the variants Y479F, S113L and P50H at 30, 37, 40 or 42 °C. n ≥ 3. Table S3. […] Comparison of the ∆TM-values of CPT II WT and the variants Y479F, S113L and P50H in buffer or in presence of 0.25 mM cardiolipin or 1% n-octyl-β-d-glucopyranoside (β-OG) assessed by nanoDSF (n ≥ 3). […] Comparison of the transition temperatures (TM) of WT and the variants Y479F, S113L and P50H in buffer with of 0.25 mM cardiolipin or 1% n-octyl-β-d-glucopyranoside (β-OG) assessed by nanoDSF (n ≥ 3). […]

[2] = substrate: C[N+](C)(C)C[C@H](O)CC(=O)[O-]; assay: Determination of the kinetic parameters kcat and KM; type: biochemical, human; settings: L-carnitine varied, absence of CL, 25 °C
Procedure: Before activity measurements, the storage buffer of the enzymes was replaced with assay buffer (50 mM KH2PO4, 120 mM KCl, 1 mM EDTA-Na4) using vivaspin turbo 4 tubes (Satorius Stedim biotech GmbH, Göttingen, Germany) at 4 °C. The pH of assay buffer was adjusted with KOH to 7.4. The storage buffer was diluted at least 1:500 in assay buffer. In addition, before each experimental set up, the protein samples were centrifuged at 16,000× g for 5 min at 4 °C to remove any micro-aggregates. After that, the protein concentration was determined using bicinchoninic acid (BCA) protein assay kit (Thermo Fisher Scientific GmbH, Berlin, Germany). The enzyme activity of recombinant CPT II was performed following Rufer et al. with modifications described elsewhere. […] After pre-conditioning the mixture to 25 °C for 2 min, the reaction was started by adding 15 nM of recombinant enzyme. The reverse reaction of CPT II was detected with the enzyme activity assay. CPT II catalyzed the transfer of fatty acid residue from Pal-CoA to L-carnitine with release of CoA and Pal-carnitine. The released CoA was then detected by the reaction of the free thiol group with DTNB, forming 5-mercapto-(2-nitrobenzoic acid). This compound has a molar extinction coefficient of 13,600 M^−1 cm^−1 at a wavelength of 410 nm, and its formation was followed spectroscopically. […] The slope of the progress curve was used to determine the reaction velocity.
It is assumed that the reaction catalyzed by CPT II represents a ping-pong mechanism or compulsory order ternary-complex mechanism.
The kinetic parameters were determined by evaluating the obtained v/S characteristic according to the Michaelis–Menten Equation (1). The […] kcat was calculated using Equation (2):(1) v=Vmax∗[S]/KM+[S] (2) kcat=Vmax/cenzyme

[3] = nanoDSF thermostability of recombinant CPT II enzymes in assay buffer; type: physicochemical; settings: for TM in Buffer: assay buffer, 1 mg/mL protein, nanoDSF; for ∆TM in Buffer: reference TM of WT in buffer (ΔTM = 0 °C)
Procedure: The protein stability was investigated applying nano differential scanning fluorimetry (nanoDSF) using a protein concentration of 1 mg/mL in assay buffer. […] The heating rate has been set to 1 °C per min. A heating ramp from 15 to 95 °C was determined. The nanoDSF data were obtained using a Prometheus NT.48 device. First derivatives were calculated using PR.ThermControl software (NanoTemper Technologies GmbH, Munich, Germany). Experiments were performed at least three times independently as double determination.

Row | Molecule | Onset of aggregation (Tagg) [1] [°C] | Km ([2]; other: WT) [mM] | kcat ([2]; other: WT) [s⁻¹] | kcat/Km ([2]; other: WT) [M⁻¹ s⁻¹] | TM in Buffer [3] | ∆TM in Buffer [3] [°C] | Km ([2]; other: S113L) [mM] | kcat ([2]; other: S113L) [s⁻¹] | kcat/Km ([2]; other: S113L) [M⁻¹ s⁻¹] | Km ([2]; other: Y479F) [mM] | kcat ([2]; other: Y479F) [s⁻¹] | kcat/Km ([2]; other: Y479F) [M⁻¹ s⁻¹]
1 | B1 | 38 | 15.1 ± 3.4 | 149 ± 11.1 | 9800 ± 1600 | 36.9 ± 1.0 °C and 37 °C | 0.0 ± 1.0 |  |  |  |  |  | 
2 | B2 | 35 |  |  |  |  | -3.1 ± 0.7 | 15.5 ± 2.3 | 144 ± 5 | 9300 ± 1400 |  |  | 
3 | B3 | 37 |  |  |  | 36.2 ± 1.2 °C | -0.74 ± 1.2 |  |  |  | 17.4 ± 4.4 | 140 ± 18.5 | 8100 ± 1100
